Source: the supplement of paper PMC9233669
This sample holds only a part of the variants without activity.

How the values were obtained:
biotinyl-Val-oxazolone = experiment: self-aminoacylation, catalytic enhancement (BVO) (fold over background); higher = more active; k-Seq, kA / k0A0; sequences stand for … in GGGAAUGGAUCCACAUCUACGAAUUC…UUCACUGCAGACUUGACGAAGCUG
In short: (§1)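 Each biotinyl-aminoacyl-oxazolone, at 2–1250 μM, was incubated with mutagenized RNA pools (0.43 μM) carrying a 21-nt variable region. The 50 μL reactions contained HEPES/NaCl/KCl/MgCl2/CaCl2 buffer with 5% acetonitrile at pH 6.9–7.0 and ran for 90 minutes at room temperature. After streptavidin capture, RNA was measured by qPCR in triplicate and by Illumina sequencing, and catalytic enhancement was calculated as median kA over the uncatalyzed rate from a pseudo-first-order fit of per-sequence fraction reacted.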

biotinyl-Trp-oxazolone = experiment: self-aminoacylation, catalytic enhancement (BWO) (fold over background); higher = more active; k-Seq, kA / k0A0; sequences stand for … in GGGAAUGGAUCCACAUCUACGAAUUC…UUCACUGCAGACUUGACGAAGCUG
In short: as §1

biotinyl-Leu-oxazolone = experiment: self-aminoacylation, catalytic enhancement (BLO) (fold over background); higher = more active; k-Seq, kA / k0A0; sequences stand for … in GGGAAUGGAUCCACAUCUACGAAUUC…UUCACUGCAGACUUGACGAAGCUG
In short: as §1

biotinyl-Phe-oxazolone = experiment: self-aminoacylation, catalytic enhancement (BFO) (fold over background); higher = more active; k-Seq, kA / k0A0; sequences stand for … in GGGAAUGGAUCCACAUCUACGAAUUC…UUCACUGCAGACUUGACGAAGCUG
In short: as §1

biotinyl-Met-oxazolone = experiment: self-aminoacylation, catalytic enhancement (BMO) (fold over background); higher = more active; k-Seq, kA / k0A0; sequences stand for … in GGGAAUGGAUCCACAUCUACGAAUUC…UUCACUGCAGACUUGACGAAGCUG
In short: as §1

biotinyl-Ile-oxazolone = experiment: self-aminoacylation, catalytic enhancement (BIO) (fold over background); higher = more active; k-Seq, kA / k0A0; sequences stand for … in GGGAAUGGAUCCACAUCUACGAAUUC…UUCACUGCAGACUUGACGAAGCUG
In short: as §1

## CUCCUUCAAACCAUCGGUCUG [Fam1A.1 aminoacylation ribozyme variant]
biotinyl-Val-oxazolone
  self-aminoacylation: 0.977
biotinyl-Trp-oxazolone
  self-aminoacylation: 0.905
biotinyl-Leu-oxazolone
  self-aminoacylation: 0.781
biotinyl-Phe-oxazolone
  self-aminoacylation: 1.69
biotinyl-Met-oxazolone
  self-aminoacylation: 0.805
biotinyl-Ile-oxazolone
  self-aminoacylation: 0.815

## CCACACGUCAAGCAAUAGGUC [Fam1B.1 aminoacylation ribozyme variant]
biotinyl-Val-oxazolone
  self-aminoacylation: 0.831
biotinyl-Trp-oxazolone
  self-aminoacylation: 0.587
biotinyl-Leu-oxazolone
  self-aminoacylation: 0.652
biotinyl-Phe-oxazolone
  self-aminoacylation: 1.1
biotinyl-Met-oxazolone
  self-aminoacylation: 0.765
biotinyl-Ile-oxazolone
  self-aminoacylation: 0.655

## AUUCACUUAGGUCAUCGGGAG [Fam2.2 aminoacylation ribozyme variant]
biotinyl-Val-oxazolone
  self-aminoacylation: 1.11
biotinyl-Trp-oxazolone
  self-aminoacylation: 0.745
biotinyl-Leu-oxazolone
  self-aminoacylation: 1.22
biotinyl-Phe-oxazolone
  self-aminoacylation: 0.746
biotinyl-Met-oxazolone
  self-aminoacylation: 1.1
biotinyl-Ile-oxazolone
  self-aminoacylation: 1.02

## UUACUUCAAACAAUCUGUCUG [Fam1A.1 aminoacylation ribozyme variant]
biotinyl-Val-oxazolone
  self-aminoacylation: 1.35
biotinyl-Trp-oxazolone
  self-aminoacylation: 2.09
biotinyl-Leu-oxazolone
  self-aminoacylation: 1.38
biotinyl-Phe-oxazolone
  self-aminoacylation: 3.15
biotinyl-Met-oxazolone
  self-aminoacylation: 1.42
biotinyl-Ile-oxazolone
  self-aminoacylation: 1.45

## AAGUCUGCUAAUAGUCGAAAG [Fam3.1 aminoacylation ribozyme variant]
biotinyl-Val-oxazolone
  self-aminoacylation: 1.04
biotinyl-Trp-oxazolone
  self-aminoacylation: 6.05
biotinyl-Leu-oxazolone
  self-aminoacylation: 1.52
biotinyl-Phe-oxazolone
  self-aminoacylation: 16.8
biotinyl-Met-oxazolone
  self-aminoacylation: 1.84
biotinyl-Ile-oxazolone
  self-aminoacylation: 1.1

## GUACUUCAAACAAUCGGCCUG [Fam1A.1 aminoacylation ribozyme variant]
biotinyl-Val-oxazolone
  self-aminoacylation: 4.17
biotinyl-Trp-oxazolone
  self-aminoacylation: 89.6
biotinyl-Leu-oxazolone
  self-aminoacylation: 7.02
biotinyl-Phe-oxazolone
  self-aminoacylation: 272
biotinyl-Met-oxazolone
  self-aminoacylation: 4.06
biotinyl-Ile-oxazolone
  self-aminoacylation: 4.51

## CCGCACUCCAAGCAAUCGGUC [Fam1B.1 aminoacylation ribozyme variant]
biotinyl-Val-oxazolone
  self-aminoacylation: 1.7
biotinyl-Trp-oxazolone
  self-aminoacylation: 5.87
biotinyl-Leu-oxazolone
  self-aminoacylation: 0.931
biotinyl-Phe-oxazolone
  self-aminoacylation: 6.39
biotinyl-Met-oxazolone
  self-aminoacylation: 0.991
biotinyl-Ile-oxazolone
  self-aminoacylation: 1.14

## AUUCACCUAGGUAUUCGGGUG [Fam2.2 aminoacylation ribozyme variant]
biotinyl-Val-oxazolone
  self-aminoacylation: 2.59
biotinyl-Trp-oxazolone
  self-aminoacylation: 3.35
biotinyl-Leu-oxazolone
  self-aminoacylation: 5.02
biotinyl-Phe-oxazolone
  self-aminoacylation: 21.8
biotinyl-Met-oxazolone
  self-aminoacylation: 3.34
biotinyl-Ile-oxazolone
  self-aminoacylation: 2.81

## AUCCACCUAGGUCAUCGGGUC [Fam2.2 aminoacylation ribozyme variant]
biotinyl-Val-oxazolone
  self-aminoacylation: 2.04
biotinyl-Trp-oxazolone
  self-aminoacylation: 2.68
biotinyl-Leu-oxazolone
  self-aminoacylation: 1.93
biotinyl-Phe-oxazolone
  self-aminoacylation: 5.86
biotinyl-Met-oxazolone
  self-aminoacylation: 2.25
biotinyl-Ile-oxazolone
  self-aminoacylation: 1.72

## AAGUUUUCUAAUAGUCACAAG [Fam3.1 aminoacylation ribozyme variant]
biotinyl-Val-oxazolone
  self-aminoacylation: 1.64
biotinyl-Trp-oxazolone
  self-aminoacylation: 1.87
biotinyl-Leu-oxazolone
  self-aminoacylation: 1.4
biotinyl-Phe-oxazolone
  self-aminoacylation: 2.39
biotinyl-Met-oxazolone
  self-aminoacylation: 1.25
biotinyl-Ile-oxazolone
  self-aminoacylation: 1.64

## CCACACCACAAGCAAUCGGUC [Fam1B.1 aminoacylation ribozyme variant]
biotinyl-Val-oxazolone
  self-aminoacylation: 1.1
biotinyl-Trp-oxazolone
  self-aminoacylation: 0.871
biotinyl-Leu-oxazolone
  self-aminoacylation: 0.949
biotinyl-Phe-oxazolone
  self-aminoacylation: 0.854
biotinyl-Met-oxazolone
  self-aminoacylation: 0.999
biotinyl-Ile-oxazolone
  self-aminoacylation: 1.13

## AAGUUUGCUAAUAGUUGCAAU [Fam3.1 aminoacylation ribozyme variant]
biotinyl-Val-oxazolone
  self-aminoacylation: 1.31
biotinyl-Trp-oxazolone
  self-aminoacylation: 1.29
biotinyl-Leu-oxazolone
  self-aminoacylation: 0.88
biotinyl-Phe-oxazolone
  self-aminoacylation: 1.25
biotinyl-Met-oxazolone
  self-aminoacylation: 1.15
biotinyl-Ile-oxazolone
  self-aminoacylation: 1.26

## AAGUUUGCUAAUUGGCGCAAG [Fam3.1 aminoacylation ribozyme variant]
biotinyl-Val-oxazolone
  self-aminoacylation: 0.935
biotinyl-Trp-oxazolone
  self-aminoacylation: 0.714
biotinyl-Leu-oxazolone
  self-aminoacylation: 1.1
biotinyl-Phe-oxazolone
  self-aminoacylation: 2.62
biotinyl-Met-oxazolone
  self-aminoacylation: 0.964
biotinyl-Ile-oxazolone
  self-aminoacylation: 0.829

## AGUACCCUGGUCAACGAGUGA [Fam2.1 aminoacylation ribozyme variant]
biotinyl-Val-oxazolone
  self-aminoacylation: 2.63
biotinyl-Trp-oxazolone
  self-aminoacylation: 5.71
biotinyl-Leu-oxazolone
  self-aminoacylation: 4.71
biotinyl-Phe-oxazolone
  self-aminoacylation: 21.6
biotinyl-Met-oxazolone
  self-aminoacylation: 5.55
biotinyl-Ile-oxazolone
  self-aminoacylation: 2.91

## AUUACCCUGGUCAUCCAUUGA [Fam2.1 aminoacylation ribozyme variant]
biotinyl-Val-oxazolone
  self-aminoacylation: 1.08
biotinyl-Trp-oxazolone
  self-aminoacylation: 0.684
biotinyl-Leu-oxazolone
  self-aminoacylation: 1.14
biotinyl-Phe-oxazolone
  self-aminoacylation: 1.15
biotinyl-Met-oxazolone
  self-aminoacylation: 0.84
biotinyl-Ile-oxazolone
  self-aminoacylation: 1.08

## AUUCAACUAAGUCAUCGGGUG [Fam2.2 aminoacylation ribozyme variant]
biotinyl-Val-oxazolone
  self-aminoacylation: 4.13
biotinyl-Trp-oxazolone
  self-aminoacylation: 7.24
biotinyl-Leu-oxazolone
  self-aminoacylation: 10.7
biotinyl-Phe-oxazolone
  self-aminoacylation: 69.4
biotinyl-Met-oxazolone
  self-aminoacylation: 7.12
biotinyl-Ile-oxazolone
  self-aminoacylation: 4.92

## AUUACCCUGGGCAUCGAUUGA [Fam2.1 aminoacylation ribozyme variant]
biotinyl-Val-oxazolone
  self-aminoacylation: 0.648
biotinyl-Trp-oxazolone
  self-aminoacylation: 0.622
biotinyl-Leu-oxazolone
  self-aminoacylation: 0.749
biotinyl-Phe-oxazolone
  self-aminoacylation: 0.38
biotinyl-Met-oxazolone
  self-aminoacylation: 0.593
biotinyl-Ile-oxazolone
  self-aminoacylation: 0.645

## CCACUUCAAACAAUCGGUCCG [Fam1A.1 aminoacylation ribozyme variant]
biotinyl-Val-oxazolone
  self-aminoacylation: 1.49
biotinyl-Trp-oxazolone
  self-aminoacylation: 16.8
biotinyl-Leu-oxazolone
  self-aminoacylation: 1.59
biotinyl-Phe-oxazolone
  self-aminoacylation: 38.5
biotinyl-Met-oxazolone
  self-aminoacylation: 1.18
biotinyl-Ile-oxazolone
  self-aminoacylation: 1.08

## AGGUUUGCUAAUAGACGCAAG [Fam3.1 aminoacylation ribozyme variant]
biotinyl-Val-oxazolone
  self-aminoacylation: 0.752
biotinyl-Trp-oxazolone
  self-aminoacylation: 0.609
biotinyl-Leu-oxazolone
  self-aminoacylation: 0.594
biotinyl-Phe-oxazolone
  self-aminoacylation: 0.835
biotinyl-Met-oxazolone
  self-aminoacylation: 0.529
biotinyl-Ile-oxazolone
  self-aminoacylation: 0.608

## AUUACCCUUGUCAUCGAGCGA [Fam2.1 aminoacylation ribozyme variant]
biotinyl-Val-oxazolone
  self-aminoacylation: 1.19
biotinyl-Trp-oxazolone
  self-aminoacylation: 0.631
biotinyl-Leu-oxazolone
  self-aminoacylation: 1.67
biotinyl-Phe-oxazolone
  self-aminoacylation: 0.755
biotinyl-Met-oxazolone
  self-aminoacylation: 1.12
biotinyl-Ile-oxazolone
  self-aminoacylation: 1.49

## UUUACCCUGGUCAUCGAGCGA [Fam2.1 aminoacylation ribozyme variant]
biotinyl-Val-oxazolone
  self-aminoacylation: 2.43
biotinyl-Trp-oxazolone
  self-aminoacylation: 3.52
biotinyl-Leu-oxazolone
  self-aminoacylation: 3.21
biotinyl-Phe-oxazolone
  self-aminoacylation: 2.17
biotinyl-Met-oxazolone
  self-aminoacylation: 3.05
biotinyl-Ile-oxazolone
  self-aminoacylation: 2.16
